Data from the supplement of paper PMC10567573.

B1: MATN2 (parent)
chain: FSLKTFKRKSEVERAVKRMRHLST

Variants of: B1
Test: protein stability index of a GFP-peptide fusion (GPS, HEK-293T) (PSI 1-6); higher = more stable
Settings: c terminus: a fixed tail appended
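Further: lentivirally expressed fusions sorted by FACS into six bins by GFP to DsRed ratio, PSI derived from sequencing read proportions per bin multiplied by bin number.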

Question: Which protein stability index does the source give for WSLKTFKRKSEVERAVKRMRHLST here?
Answer: The protein stability index was 1.69.

Question: For LSLKTFKRKSEVERAVKRMRHLST, which protein stability index is on record?
Answer: The protein stability index was 2.19.

Question: With QSLKTFKRKSEVERAVKRMRHLST as the variant, how does the protein stability index read?
Answer: The protein stability index was 3.62.

Question: For CSLKTFKRKSEVERAVKRMRHLST, which protein stability index is on record?
Answer: Its protein stability index is 2.45.

Question: For RSLKTFKRKSEVERAVKRMRHLST, which protein stability index is on record?
Answer: The protein stability index was 2.37.

Question: For KSLKTFKRKSEVERAVKRMRHLST, which protein stability index is on record?
Answer: The protein stability index was 3.46.

Question: With NSLKTFKRKSEVERAVKRMRHLST as the variant, how does the protein stability index read?
Answer: The protein stability index was 3.33.

Question: With TSLKTFKRKSEVERAVKRMRHLST as the variant, how does the protein stability index read?
Answer: The protein stability index was 3.02.

Question: For YSLKTFKRKSEVERAVKRMRHLST, which protein stability index is on record?
Answer: Its protein stability index is 3.13.

Question: Which protein stability index does the source give for GSLKTFKRKSEVERAVKRMRHLST here?
Answer: The protein stability index was 2.86.

Question: Which protein stability index does the source give for HSLKTFKRKSEVERAVKRMRHLST here?
Answer: The protein stability index was 3.6.

Question: Which protein stability index does the source give for MSLKTFKRKSEVERAVKRMRHLST here?
Answer: Its protein stability index is 2.24.

Question: With ESLKTFKRKSEVERAVKRMRHLST as the variant, how does the protein stability index read?
Answer: Its protein stability index is 2.72.

Question: For ASLKTFKRKSEVERAVKRMRHLST, which protein stability index is on record?
Answer: The protein stability index was 3.04.

Question: With SSLKTFKRKSEVERAVKRMRHLST as the variant, how does the protein stability index read?
Answer: The protein stability index was 2.87.

Question: For DSLKTFKRKSEVERAVKRMRHLST, which protein stability index is on record?
Answer: The protein stability index was 2.77.

Question: For VSLKTFKRKSEVERAVKRMRHLST, which protein stability index is on record?
Answer: Its protein stability index is 2.56.

Question: For PSLKTFKRKSEVERAVKRMRHLST, which protein stability index is on record?
Answer: Its protein stability index is 3.

Question: For ISLKTFKRKSEVERAVKRMRHLST, which protein stability index is on record?
Answer: The protein stability index was 2.39.

Question: Which protein stability index does the source give for FSLKTFKRKSMVERAVKRMRHLST here?
Answer: Its protein stability index is 2.8.

Question: Which protein stability index does the source give for FSLKTFKRKSQVERAVKRMRHLST here?
Answer: Its protein stability index is 2.44.

Question: With FSLKTFKRKSFVERAVKRMRHLST as the variant, how does the protein stability index read?
Answer: The protein stability index was 2.01.

Question: For FSLKTFKRKSCVERAVKRMRHLST, which protein stability index is on record?
Answer: The protein stability index was 1.76.

Question: For FSLKTFKRKSRVERAVKRMRHLST, which protein stability index is on record?
Answer: The protein stability index was 3.21.

Question: Which protein stability index does the source give for FSLKTFKRKSPVERAVKRMRHLST here?
Answer: Its protein stability index is 2.17.

Question: For FSLKTFKRKSSVERAVKRMRHLST, which protein stability index is on record?
Answer: Its protein stability index is 1.98.

Question: For FSLKTFKRKSIVERAVKRMRHLST, which protein stability index is on record?
Answer: Its protein stability index is 1.96.

Question: Which protein stability index does the source give for FSLKTFKRKSHVERAVKRMRHLST here?
Answer: Its protein stability index is 2.29.

Question: With FSLKTFKRKSNVERAVKRMRHLST as the variant, how does the protein stability index read?
Answer: Its protein stability index is 2.82.

Question: Which protein stability index does the source give for FSLKTFKRKSKVERAVKRMRHLST here?
Answer: Its protein stability index is 3.17.

Question: Which protein stability index does the source give for FSLKTFKRKSDVERAVKRMRHLST here?
Answer: The protein stability index was 2.39.

Question: With FSLKTFKRKSAVERAVKRMRHLST as the variant, how does the protein stability index read?
Answer: The protein stability index was 2.52.

Question: Which protein stability index does the source give for FSLKTFKRKSGVERAVKRMRHLST here?
Answer: The protein stability index was 2.46.

Question: For FSLKTFKRKSLVERAVKRMRHLST, which protein stability index is on record?
Answer: Its protein stability index is 2.56.

Question: For FSLATFKRKSEVERAVKRMRHLST, which protein stability index is on record?
Answer: Its protein stability index is 1.69.

Question: Which protein stability index does the source give for FSLGTFKRKSEVERAVKRMRHLST here?
Answer: The protein stability index was 2.28.

Question: For FSLPTFKRKSEVERAVKRMRHLST, which protein stability index is on record?
Answer: Its protein stability index is 2.58.

Question: With FSLLTFKRKSEVERAVKRMRHLST as the variant, how does the protein stability index read?
Answer: Its protein stability index is 1.78.

Question: For FSLITFKRKSEVERAVKRMRHLST, which protein stability index is on record?
Answer: The protein stability index was 2.21.

Question: For FSLETFKRKSEVERAVKRMRHLST, which protein stability index is on record?
Answer: Its protein stability index is 1.8.

Question: For FSLTTFKRKSEVERAVKRMRHLST, which protein stability index is on record?
Answer: The protein stability index was 2.18.

Question: With FSLFTFKRKSEVERAVKRMRHLST as the variant, how does the protein stability index read?
Answer: Its protein stability index is 1.85.

Question: Which protein stability index does the source give for FSLRTFKRKSEVERAVKRMRHLST here?
Answer: Its protein stability index is 2.38.

Question: With FSLDTFKRKSEVERAVKRMRHLST as the variant, how does the protein stability index read?
Answer: Its protein stability index is 2.05.

Question: With FSLMTFKRKSEVERAVKRMRHLST as the variant, how does the protein stability index read?
Answer: The protein stability index was 3.59.

Question: With FSLQTFKRKSEVERAVKRMRHLST as the variant, how does the protein stability index read?
Answer: Its protein stability index is 2.45.

Question: For FSLNTFKRKSEVERAVKRMRHLST, which protein stability index is on record?
Answer: Its protein stability index is 2.39.

Question: With FSLHTFKRKSEVERAVKRMRHLST as the variant, how does the protein stability index read?
Answer: The protein stability index was 2.21.

Question: Which protein stability index does the source give for FSLSTFKRKSEVERAVKRMRHLST here?
Answer: The protein stability index was 2.09.

Question: For FSLCTFKRKSEVERAVKRMRHLST, which protein stability index is on record?
Answer: The protein stability index was 1.74.

Question: Which protein stability index does the source give for FSLKEFKRKSEVERAVKRMRHLST here?
Answer: The protein stability index was 1.47.

Question: With FSLKRFKRKSEVERAVKRMRHLST as the variant, how does the protein stability index read?
Answer: Its protein stability index is 2.48.

Question: With FSLKSFKRKSEVERAVKRMRHLST as the variant, how does the protein stability index read?
Answer: The protein stability index was 2.4.

Question: With FSLKMFKRKSEVERAVKRMRHLST as the variant, how does the protein stability index read?
Answer: Its protein stability index is 2.91.

Question: With FSLKKFKRKSEVERAVKRMRHLST as the variant, how does the protein stability index read?
Answer: Its protein stability index is 2.48.

Question: Which protein stability index does the source give for FSLKPFKRKSEVERAVKRMRHLST here?
Answer: The protein stability index was 2.11.

Question: With FSLKLFKRKSEVERAVKRMRHLST as the variant, how does the protein stability index read?
Answer: The protein stability index was 1.58.

Question: Which protein stability index does the source give for FSLKFFKRKSEVERAVKRMRHLST here?
Answer: Its protein stability index is 2.56.

Question: Which protein stability index does the source give for FSLKGFKRKSEVERAVKRMRHLST here?
Answer: Its protein stability index is 2.71.

Question: With FSLKAFKRKSEVERAVKRMRHLST as the variant, how does the protein stability index read?
Answer: The protein stability index was 1.94.

Question: Which protein stability index does the source give for FSLKVFKRKSEVERAVKRMRHLST here?
Answer: Its protein stability index is 1.8.

Question: Which protein stability index does the source give for FSLKYFKRKSEVERAVKRMRHLST here?
Answer: Its protein stability index is 1.89.

Question: With FSLKHFKRKSEVERAVKRMRHLST as the variant, how does the protein stability index read?
Answer: The protein stability index was 1.91.

Question: For FSLKIFKRKSEVERAVKRMRHLST, which protein stability index is on record?
Answer: Its protein stability index is 2.29.

Question: Which protein stability index does the source give for FSLKQFKRKSEVERAVKRMRHLST here?
Answer: The protein stability index was 3.18.

Question: For FSLKDFKRKSEVERAVKRMRHLST, which protein stability index is on record?
Answer: Its protein stability index is 2.75.

Question: For FSCKTFKRKSEVERAVKRMRHLST, which protein stability index is on record?
Answer: Its protein stability index is 1.93.

Question: For FSDKTFKRKSEVERAVKRMRHLST, which protein stability index is on record?
Answer: The protein stability index was 2.

Question: Which protein stability index does the source give for FSPKTFKRKSEVERAVKRMRHLST here?
Answer: The protein stability index was 2.13.

Question: With FSIKTFKRKSEVERAVKRMRHLST as the variant, how does the protein stability index read?
Answer: Its protein stability index is 2.56.

Question: Which protein stability index does the source give for FSVKTFKRKSEVERAVKRMRHLST here?
Answer: The protein stability index was 2.11.

Question: Which protein stability index does the source give for FSHKTFKRKSEVERAVKRMRHLST here?
Answer: The protein stability index was 2.78.

Question: Which protein stability index does the source give for FSFKTFKRKSEVERAVKRMRHLST here?
Answer: The protein stability index was 2.23.

Question: For FSKKTFKRKSEVERAVKRMRHLST, which protein stability index is on record?
Answer: The protein stability index was 3.54.

Question: With FSGKTFKRKSEVERAVKRMRHLST as the variant, how does the protein stability index read?
Answer: Its protein stability index is 2.91.

Question: Which protein stability index does the source give for FSQKTFKRKSEVERAVKRMRHLST here?
Answer: The protein stability index was 2.23.

Question: Which protein stability index does the source give for FSTKTFKRKSEVERAVKRMRHLST here?
Answer: The protein stability index was 2.3.

Question: Which protein stability index does the source give for FSYKTFKRKSEVERAVKRMRHLST here?
Answer: The protein stability index was 2.15.

Question: For FSSKTFKRKSEVERAVKRMRHLST, which protein stability index is on record?
Answer: Its protein stability index is 2.45.

Question: For FSRKTFKRKSEVERAVKRMRHLST, which protein stability index is on record?
Answer: The protein stability index was 3.

Question: Which protein stability index does the source give for FSWKTFKRKSEVERAVKRMRHLST here?
Answer: Its protein stability index is 3.27.

Question: With FSAKTFKRKSEVERAVKRMRHLST as the variant, how does the protein stability index read?
Answer: The protein stability index was 2.94.

Question: For FSNKTFKRKSEVERAVKRMRHLST, which protein stability index is on record?
Answer: The protein stability index was 1.98.

Question: Which protein stability index does the source give for FSEKTFKRKSEVERAVKRMRHLST here?
Answer: The protein stability index was 3.08.

Question: With FSMKTFKRKSEVERAVKRMRHLST as the variant, how does the protein stability index read?
Answer: Its protein stability index is 2.25.

Question: For FSLKTFSRKSEVERAVKRMRHLST, which protein stability index is on record?
Answer: Its protein stability index is 1.69.

Question: With FSLKTFGRKSEVERAVKRMRHLST as the variant, how does the protein stability index read?
Answer: Its protein stability index is 2.46.

Question: For FSLKTFIRKSEVERAVKRMRHLST, which protein stability index is on record?
Answer: The protein stability index was 1.31.

Question: With FSLKTFYRKSEVERAVKRMRHLST as the variant, how does the protein stability index read?
Answer: The protein stability index was 1.77.

Question: For FSLKTFTRKSEVERAVKRMRHLST, which protein stability index is on record?
Answer: The protein stability index was 2.31.

Question: Which protein stability index does the source give for FSLKTFQRKSEVERAVKRMRHLST here?
Answer: The protein stability index was 1.97.

Question: With FSLKTFHRKSEVERAVKRMRHLST as the variant, how does the protein stability index read?
Answer: The protein stability index was 2.05.

Question: With FSLKTFMRKSEVERAVKRMRHLST as the variant, how does the protein stability index read?
Answer: The protein stability index was 2.66.

Question: Which protein stability index does the source give for FSLKTFLRKSEVERAVKRMRHLST here?
Answer: Its protein stability index is 1.15.
